A short description of this data set: yeast display, Sf9 membrane polyspecificity reagent, FACS + sequencing; frameworks hold sequencing errors. In outline: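 Nanobodies from a synthetic yeast display library (Saccharomyces cerevisiae BJ5465), induced 36–48 hours with galactose, were stained 1 hour at 4 °C with 10% biotinylated, detergent-solubilized Sf9 membrane reagent, enriched on streptavidin microbeads, then FACS-sorted. Anti-HA (expression) and streptavidin (reagent binding) fluorescence set low and high (top ~1%) gates. Polyreactivity labels come from the gate of origin. Genes were colony-PCR amplified, MiSeq 2 × 250 sequenced and filtered by CDR length.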
Consider “QVQLVESGGGLVQAGGTLRLSCAASGRIFSYNAMGWYRQAPGKERELVAAITWRGGNTYYADSVKGRFTISRDNALNTVYLQMNSLQPEDTAVYYCAAQRGRWAPMYFWGQGTQVTVSS”, for which the “polyreactivity (PSR sort gate)” value is on record as “high polyreactivity”.

Regarding “QVQLVDSGGGLVQAGGSLRLSCAASGSTFYYNAMGWYRQAPGKERELVARISRSGGSTYADSVKGRFTISRDNAKNTFYLQMNSLKPEDTAVYYCNADAYGTPEFTSYAVCYDYWGQGTQVTVSS”, the “polyreactivity (PSR sort gate)” value is “low polyreactivity”.

As for “QVQHVESGGGLVQAGGSLRLSCAASGSTLGGYVMGWYRQAPGKERELVASITYSGGSTRYADSVKGRFTISRDNAKNTVYLQMNSLKPEDTAVYYCAAGAQRTYYTYSFRRVGYDYDYWGQGTQVTVSS”, the “polyreactivity (PSR sort gate)” value was “low polyreactivity”.

For “QVQLVESGGGLVQAGGSLRLSCAASGRISFNAMGWYRQAPGKERELVAAITSSGGRTYYADSVKGRFTISRDNAKNTVYLQMNSLKPEDTAVYYCATGSPGGSPGWGRTTGRLGYWGQGTQVTVSS”, the “polyreactivity (PSR sort gate)” value is on record as “high polyreactivity”.

For “QVQLVESVGGLVQAGGSLRLSCAASGSIFYGYAMGWYRQAAGKEREFVAAITFSATSTYYADSVKGRFTISRDNAKNTVYLQMNSLKPEVTAVYYCNASHVSHYRARDYWGQGTQVTVSS”, the “polyreactivity (PSR sort gate)” value is given as “low polyreactivity”.

Regarding “QVQHVESGGGLVQARGSLRLTCAASGLILSSNAMGWYRQAPGKERELVAAITWDGDRTYADSVKGRFTISRDNAKNTVYLQRNSLKPEDTAVYYCAADKQYYWYDWSYDYWGQGTQVTVSS”, the “polyreactivity (PSR sort gate)” value is on record as “low polyreactivity”.

As to “QVQLEESGGGLVQAGGSLRLSCAASGSIYTYTMGWYRQAPGKERELVAAISWNGGRTYYADSVKGRFTISRDNAKNTVYLQMNSLKPEDTAVYYCNAAISYSYGYWGQGTQVTVSS”, the “polyreactivity (PSR sort gate)” value was “high polyreactivity”.

For “QVQLVESGRGLVQAGGSLRLSCAASGFIFAKYDMGCYSKAPVKERELVAAITRSGARTYYADSVKGRFTISRDNAKTTVYLQMNSLKPEDTAVYYCAIVTTVYTYDYWGQGTQVTVSS”, the “polyreactivity (PSR sort gate)” value is reported as “high polyreactivity”.

“QVQLVESGGGLVQAGGSLRLRCAASGITFTINAMGWYRQAPGTEGELVATISINGGSTNYADSVKGRFTISRDNAKNTVYLQMNSLKPEDTAVYYCAADALGPFRFQFFYTTAYVYWGQGTQVTVSS”: the “polyreactivity (PSR sort gate)” value is on record as “low polyreactivity”.

For the sequence “QFQLVESGGGLFQAGGILRLSCAASGRNFLYNAMGWDRQAPGKERELVAAISSRGARTYYADSVKGRFTISRDNAKNTVYFQMNSLKPEDTAVYYCATDSYRYDGIQYLYEYYYWGQGTQVTVSS”, the “polyreactivity (PSR sort gate)” value is “high polyreactivity”.

For “QVQLVESGGGLVQAGGSLRLSCAASGFIFLDNAMGWNRQAPGKERELVDAISSTGSTYADSVKGRFTISRDNAKNTVYLQMNSLKPEDTAVYYCAADIEVSWDDDGYYPEYDYWGQGTQVTVSS”, the “polyreactivity (PSR sort gate)” value was “low polyreactivity”.

In the case of “QVQLVESGGGLVQAGGSLRLSCAASGRTLRYYAMGWYRQAPGKDRELVASISIGGSTYYADSVKGRFTISRDNAKNTVYLQMTSLKPEDTAVYYGATDYSNSGYGYWGQGTQVTVSS”, the “polyreactivity (PSR sort gate)” value is “low polyreactivity”.

For the sequence “QVQLVESGGGLVQAGGSLRLSCAASGLTFSPYAMGWSRQAPGKERELVATITIGGSTKYADSVKGRFTISRDNAKNTVYLQMNSLKPEDSAVYYCAVRSGYVTRSYEYWGQGTQVTVSS”, the “polyreactivity (PSR sort gate)” value is “low polyreactivity”.

On to “QVQLVESGGGLVQAGGSLRLSCAASGSIFSRYAMGWYRQAPGKERELVAAISWRGVSTYYADSVKGRFTISRDNAKNTVYLQMNSLKPEDTAVYYCAADTGRYLDSNYWGQGTQVTVSS”, for which the “polyreactivity (PSR sort gate)” value is reported as “high polyreactivity”.

“QVQLVESGGGLVQAGGSLRLSCAASGRIFKYYAMGWYREAPGKERELVAAIDWRGDSTYYADSVKGRFTISRDHAKNTVYLQMNSLKPEDTAVYYCAVVGTRGYHGYDSWGQGTQVTVSS”: the “polyreactivity (PSR sort gate)” value is reported as “low polyreactivity”.

For the sequence “QVQLVESGGGLVQAGGSLRLSCAASGSTFPLYAMGWYRQAPGKERELVAAITSGGGNTYYADSVKGRFTISRDNAKNTVYLQMNSLKPEDTAVYYCAAVGGYKSYYSYEYDYWGQGTQVTVSS”, the “polyreactivity (PSR sort gate)” value is on record as “low polyreactivity”.

For the sequence “QVQLVESGGGLVQAGGSLRLSCAASGRTFDSYAMGWYRQAPGTETELVAGITRSGDSSYADSVKGRFTISRDNAKNTVYLQMTSLKPEDTAVYYCNKEGTVGGTRGYWGQGTQVTVSS”, the “polyreactivity (PSR sort gate)” value is given as “low polyreactivity”.

Take “QVQLVESGGGLVQAGGSLRLSCAASGRIFWGYAMGWYRQAPGKERELVARITSGGDTYYADSVKGRFTISRDNAKNTVYLQMNSLKPEDTAVYYCAISTAVKPYAYRESGFIYDYWGQGSQVTVSS”: the “polyreactivity (PSR sort gate)” value is reported as “low polyreactivity”.

In the case of “QVQLVESGGGLVQAGGSLRLSCASSGRTFFQYAMGWYRQAPGKERELVAAIRWSDSTYYADSVKGRFTISRDNAKNTVYLQMNSLKPEDTAVYYCAAPRVSQYSTKKYDYWGQGTQVTVSS”, the “polyreactivity (PSR sort gate)” value is “low polyreactivity”.

In the case of “QVQLVESGGGLVQAGGSLRLSCAASGRTIKKYTMGWSRQAPGKERELVAVITSGGSTYYADSVKGRFTISRDNAKNTVYFQMNSLKPEDTAVYYCAVIYPELRTWGYYFWGQGTQVTVSS”, the “polyreactivity (PSR sort gate)” value is recorded as “high polyreactivity”.

As to “QVQVVESGGGLVQAGGSLRLSCAASGYIFDYYAMGWYRQAPGKERELVAAISSSGGTTYYADSVKGRFTISRDNAKNTVYLQMNSLKPEDTAVYYCAADAVLPRSDYWGQGTQVTVSS”, the “polyreactivity (PSR sort gate)” value is “high polyreactivity”.

“QVQLVESGGGLVQAGGSLRLSCAASGRIFPGYAMGWYRQAPGKERELVASISSGGRTYYADSVKGRFTISRDNAKNTVYLQMNSLIPEDTAVYYCNSRHSSYSFRYDYWGQGTQVTVSS”: the “polyreactivity (PSR sort gate)” value is “low polyreactivity”.

As for “QVQLVEPGGGLVQAGGSLRLSCAASGFTFYDYAMGWYRQAPGKERELVARINGGGGTNYADSVKGRFTISRDNAKNTVYLQMNSLKPEDSAVYYCAADLYFRQGDVDLLRYDYWGQGTQVTVSS”, the “polyreactivity (PSR sort gate)” value is listed as “low polyreactivity”.

“QVQLVESGGGLVQAGGSLRLSCAASGSTLVGYAMGWYRQAPGKERELVAAISSSGTSTYYADSVKGRFSISRDNAKNTVYLQMNSLKPEDTAVYYCSARQRGTYGYWGQGTQVTVSS”: the “polyreactivity (PSR sort gate)” value was “high polyreactivity”.

“QVQLVESGGGLVQAGGSLRLSCAASGITFWNNAMGWYRQAPGKERELVATISSNGGRTYYADSVKGRFTISRDNAKNSVYLQMNSLKPEDTAVYYCNAARRAYGYNYWGQGTQVTVSS”: the “polyreactivity (PSR sort gate)” value is given as “low polyreactivity”.

For the sequence “QVQLVESGGGLVQAGGSLRLSCAASGFIFRKYAMGWYRQAPGTERELVAAIRQRGGTTYYADSVKGRFTISRDNAKNTVSLQMNSLKPEDTAVNYCAAPYSSAYKYDYWGQGTQVTVSS”, the “polyreactivity (PSR sort gate)” value is recorded as “high polyreactivity”.

With “QVQLVESGGGLVQAGGSLRLSCAASGSTFVLYAMGWYRQAPGKERELVAAINSAGSTNYADSVKGRFTISRDNAKNTVYLQMNSLNPEDTAVYYCAAEYYYSYVDRTYYIYDYWGQGTQVTVSS”, the “polyreactivity (PSR sort gate)” value is “high polyreactivity”.

For “QVQLVESGGGLVQAGGSLRLSCAASGSTFHGYAMGWYRQEPGKERELVAAITSGDSTNYADSVKGRFTISRDNAKNTVYLQMNSLKPEDTAVYYCNAEGSSVLTGYWGYPPYWDTYDYWGQGTQVTVSS”, the “polyreactivity (PSR sort gate)” value is listed as “low polyreactivity”.

For “QVQLVESGGGLVQARGSLRLSCAASGFTFYFYAMGWYRQATGKETELVAAISRSGSRTYYADSVKGRFTISRDNAKNTVYLQMNSLKPVDTAVYYCARVRPRGLYFVLHYDYWGQGTQVTVSS”, the “polyreactivity (PSR sort gate)” value is recorded as “high polyreactivity”.

Take “QVQLVESGGGLVQAGGSLRLSCAASGIIFVRYAMGWYRQAPGKERELVAAITRNGGRTYYADSVKGRFTISRDNAKNTVYLQMNSLKPEDTAVYYCAAYPAYPGTLEMDYWGQGTQVTVSS”: the “polyreactivity (PSR sort gate)” value is listed as “high polyreactivity”.

These data come from the nanobody polyreactivity screen of Harvey et al. (2022).
